The target in assay [1] is rabbit skeletal muscle actin (rabbit) (UniProt P68135). As to the kind of experiment: co-sedimentation. The conditions noted are these: scale: G-actin units per actinogelin dimeric unit.
For assay [2], the target named is actinogelin (mouse (endogenous in Ehrlich tumor cells)) (UniProt Q7TPR4). Briefly: AUC.
Assay [3] shares this target. Briefly: cross-linking.

Chain of actinogelin (Q7TPR4 whole entry): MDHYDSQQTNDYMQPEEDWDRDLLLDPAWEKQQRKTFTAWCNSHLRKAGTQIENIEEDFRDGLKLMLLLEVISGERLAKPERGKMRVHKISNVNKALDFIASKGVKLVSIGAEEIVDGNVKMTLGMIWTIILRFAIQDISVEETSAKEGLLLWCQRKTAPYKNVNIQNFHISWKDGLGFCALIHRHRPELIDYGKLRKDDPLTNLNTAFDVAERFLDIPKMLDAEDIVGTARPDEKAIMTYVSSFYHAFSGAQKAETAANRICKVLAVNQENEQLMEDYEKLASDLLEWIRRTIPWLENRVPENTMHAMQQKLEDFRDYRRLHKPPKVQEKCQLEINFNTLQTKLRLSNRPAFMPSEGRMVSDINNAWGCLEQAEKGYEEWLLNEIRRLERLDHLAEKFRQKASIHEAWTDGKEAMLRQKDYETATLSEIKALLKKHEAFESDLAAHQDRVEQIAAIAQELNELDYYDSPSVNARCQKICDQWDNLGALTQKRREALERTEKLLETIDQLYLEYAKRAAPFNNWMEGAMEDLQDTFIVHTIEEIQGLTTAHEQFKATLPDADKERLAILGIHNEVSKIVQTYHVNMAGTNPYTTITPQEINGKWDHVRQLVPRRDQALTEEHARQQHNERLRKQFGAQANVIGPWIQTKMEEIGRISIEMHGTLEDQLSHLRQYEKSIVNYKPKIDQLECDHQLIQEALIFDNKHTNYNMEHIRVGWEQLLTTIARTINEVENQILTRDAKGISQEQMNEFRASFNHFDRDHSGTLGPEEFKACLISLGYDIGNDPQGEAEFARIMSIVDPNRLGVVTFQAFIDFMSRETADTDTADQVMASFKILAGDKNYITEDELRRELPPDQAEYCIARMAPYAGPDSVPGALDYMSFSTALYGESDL

On to “actinogelin (from UniProt Q7TPR4 1-892) (natural protein)”, for which the stoichiometry N in assay [1] is 10 to 12; in assay [2], 2 subunits; in assay [3] it was 2 subunits.

The stoichiometry N is a count of units in the complex or per binding partner.

(Values after article PMC2112147.)
